Source: patent US20250361274A1, “PEPTIDE AND PEPTIDE-CONTAINING AGENT” (PEPTIDREAM INC., priority 2022, published 2025)
Numbered stars: 1 amine (or outer) side, 2 acyl side, 3 side chain; on linkers, the order of the positions; unused ones are H or OH. Square brackets hold non-standard residues; d marks the D form. Ends that are not written are not given here. KCOpipzaa = N6-(4-(carboxymethyl)piperazine-1-carbonyl)-L-lysine, O=C(NCCCC[C@H](N[*:1])C(=O)[*:2])N1CCN(CC(=O)[*:3])CC1; Bph3C = (S)-2-amino-3-(3'-chloro-[1,1'-biphenyl]-4-yl)propanoic acid, O=C([C@H](Cc1ccc(-c2cccc(Cl)c2)cc1)N[*:1])[*:2]; F44thp = (S)-2-amino-3-[4-(tetrahydro-2H-pyran-4-yl)phenyl]propanoic acid, O=C([C@H](Cc1ccc(C2CCOCC2)cc1)N[*:1])[*:2]; Bph3F = (S)-2-amino-3-(3'-fluoro-[1,1'-biphenyl]-4-yl)propanoic acid, O=C([C@H](Cc1ccc(-c2cccc(F)c2)cc1)N[*:1])[*:2]; Cha4tH = (S)-2-amino-3-((1r,4S)-4-hydroxycyclohexyl)propanoic acid, O=C([C@H](C[C@H]1CC[C@H](O[*:3])CC1)N[*:1])[*:2]; F42Py = (S)-2-amino-3-[4-(pyridin-2-yl)phenyl]propanoic acid, O=C([C@H](Cc1ccc(-c2ccccn2)cc1)N[*:1])[*:2]; Phe(4-(4-pyridyl)) = N[C@@H](Cc1ccc(-c2ccncc2)cc1)C(=O)O; Phe(4-(3-Py)) = N[C@@H](Cc1ccc(-c2cccnc2)cc1)C(=O)O; 3Pal(6-Ph) = N[C@@H](Cc1ccc(-c2ccccc2)nc1)C(=O)O; Phe(4-COOH) = N[C@@H](Cc1ccc(C(=O)O)cc1)C(=O)O; Bip = N[C@@H](Cc1ccc(-c2ccccc2)cc1)C(=O)O; Hyp = O=C(O)[C@@H]1C[C@@H](O)CN1; NMeF = CN[C@@H](Cc1ccccc1)C(=O)O; 3Pal = N[C@@H](Cc1cccnc1)C(=O)O; 4Pal = N[C@@H](Cc1ccncc1)C(=O)O; Cha = N[C@@H](CC1CCCCC1)C(=O)O

Columns and labels:
BMP4 = biological target: T1, BMP4 (Homo sapiens, UniProt P12644); test: BMP4 signal transduction inhibitory activity: SMAD1 phosphorylation by BMP4 stimulus, AlphaLISA SureFire, A549 cells; assay type: cell-based; conditions: BMP4 0.2 nM; for aLIZA BMP4 (0.2 nM) % inh: peptide 0.02, 0.2, 2 nM, Table 6; for aLISA BMP4 (0.2 nM) % inh: SMAD1 phosphorylation, peptide conc. in assay 0.2, 2, 20 nM
T1 sequence (P12644 293-408): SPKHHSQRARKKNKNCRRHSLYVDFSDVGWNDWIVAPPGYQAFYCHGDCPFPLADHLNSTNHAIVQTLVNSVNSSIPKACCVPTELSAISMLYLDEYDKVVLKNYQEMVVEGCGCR

BMP7 = biological target: T2, BMP7 (Homo sapiens, UniProt P18075); test: BMP7 signal transduction inhibitory activity: SMAD1 phosphorylation by BMP7 stimulus, A549 cells; assay type: cell-based; conditions: BMP7 10 nM; for aLIZA BMP7 (10 nM) % inh: peptide 10, 100, 1000 nM, Table 6; for aLISA BMP7 (10 nM) % inh: SMAD1 phosphorylation, peptide conc. in assay 1, 10, 100 nM
T2 sequence (P18075 293-431): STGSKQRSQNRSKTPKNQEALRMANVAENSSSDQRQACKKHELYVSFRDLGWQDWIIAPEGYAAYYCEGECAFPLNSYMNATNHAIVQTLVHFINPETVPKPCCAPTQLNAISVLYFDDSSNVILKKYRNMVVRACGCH
In short: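 A549 cells were stimulated with 10 nM BMP7, and peptide inhibition of signalling was measured as SMAD1 phosphorylation. Peptides were tested at three concentrations, in sets ranging from 1–100 nM to 100–1,000 nM, or as eight-point 1/3 dilution series starting at 100 nM or 1,000 nM.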

Substance	aLIZA BMP4 (0.2 nM) % inh (BMP4)	aLIZA BMP7 (10 nM) % inh (BMP7)	aLISA BMP4 (0.2 nM) % inh (BMP4)	aLISA BMP7 (10 nM) % inh (BMP7)
318 (ERV[Phe(4-COOH)][Cha4tH][KCOpipzaa]R[3Pal(6-Ph)][KCOpipzaa]Y[Hyp][Bph3F]Y[Phe(4-COOH)][Phe(4-COOH)]SCG-NH2; not fully specified) [compound 318]	B (showed less than 30% of inhibitory activity in 0.02 nM-addition zone and showed 30% or more of inhibitory activity in 0.2 nM-addition zone)	D (showed less than 30% of inhibitory activity in a zone to which the peptide was added in an amount of 10 nM and showed 30% or more of inhibitory activity in 100 nM-addition zone)	–	–
319 (ERV[Phe(4-COOH)][Cha4tH][KCOpipzaa]R[3Pal(6-Ph)][KCOpipzaa]Y[Hyp][Bph3C]Y[Phe(4-COOH)][Phe(4-COOH)]SCG-NH2; not fully specified) [compound 319]	B (showed less than 30% of inhibitory activity in 0.02 nM-addition zone and showed 30% or more of inhibitory activity in 0.2 nM-addition zone)	D (showed less than 30% of inhibitory activity in a zone to which the peptide was added in an amount of 10 nM and showed 30% or more of inhibitory activity in 100 nM-addition zone)	–	–
320 (ERV[Phe(4-COOH)][Cha4tH][KCOpipzaa]R[3Pal(6-Ph)][KCOpipzaa]Y[Hyp][Bph3F][4Pal][Phe(4-COOH)][Phe(4-COOH)]SCG-NH2; not fully specified) [compound 320]	B (showed less than 30% of inhibitory activity in 0.02 nM-addition zone and showed 30% or more of inhibitory activity in 0.2 nM-addition zone)	E (showed less than 30% of inhibitory activity in 100 nM-addition zone and showed 30% or more of inhibitory activity in 1,000 nM-addition zone)	–	–
321 (ERV[Phe(4-COOH)][Cha4tH][KCOpipzaa]R[3Pal(6-Ph)][KCOpipzaa]Y[Hyp][Bph3C][4Pal][Phe(4-COOH)][Phe(4-COOH)]SCG-NH2) [compound 321]	B (showed less than 30% of inhibitory activity in 0.02 nM-addition zone and showed 30% or more of inhibitory activity in 0.2 nM-addition zone)	E (showed less than 30% of inhibitory activity in 100 nM-addition zone and showed 30% or more of inhibitory activity in 1,000 nM-addition zone)	–	–
322 ([4Pal]G[NMeF]G[Bip]GDD[Cha]A[NMeF]LHCG-NH2) [compound 322]	–	–	ND (the inhibitory activity was less than 30% at the maximum concentration evaluated)	D (showed less than 30% of inhibitory activity in 10 nM-addition zone and showed 30% or more of inhibitory activity in 100 nM-addition zone)
323 ([3Pal]G[NMeF]G[Bip]GDD[Cha]A[NMeF]LHCG-NH2; not fully specified) [compound 323]	–	–	ND (the inhibitory activity was less than 30% at the maximum concentration evaluated)	D (showed less than 30% of inhibitory activity in 10 nM-addition zone and showed 30% or more of inhibitory activity in 100 nM-addition zone)
324 (FG[NMeF]GFGDD[Cha]A[NMeF]LHCG-NH2) [compound 324]	–	–	ND (the inhibitory activity was less than 30% at the maximum concentration evaluated)	D (showed less than 30% of inhibitory activity in 10 nM-addition zone and showed 30% or more of inhibitory activity in 100 nM-addition zone)
325 (FG[NMeF]G[Phe(4-(4-pyridyl))]GDD[Cha]A[NMeF]LHCG-NH2; not fully specified) [compound 325]	–	–	ND (the inhibitory activity was less than 30% at the maximum concentration evaluated)	D (showed less than 30% of inhibitory activity in 10 nM-addition zone and showed 30% or more of inhibitory activity in 100 nM-addition zone)
326 (FG[NMeF]G[Phe(4-(3-Py))]GDD[Cha]A[NMeF]LHCG-NH2; not fully specified) [compound 326]	–	–	ND (the inhibitory activity was less than 30% at the maximum concentration evaluated)	D (showed less than 30% of inhibitory activity in 10 nM-addition zone and showed 30% or more of inhibitory activity in 100 nM-addition zone)
327 (FG[NMeF]G[F42Py]GDD[Cha]A[NMeF]LHCG-NH2; not fully specified) [compound 327]	–	–	A (showed less than 30% of inhibitory activity in 2 nM-peptide-addition zone and showed 30% or more of inhibitory activity in 20 nM-addition zone)	D (showed less than 30% of inhibitory activity in 10 nM-addition zone and showed 30% or more of inhibitory activity in 100 nM-addition zone)
328 (FG[NMeF]G[3Pal(6-Ph)]GDD[Cha]A[NMeF]LHCG-NH2; not fully specified (N-terminus, bridges)) [compound 328]	–	–	ND (the inhibitory activity was less than 30% at the maximum concentration evaluated)	D (showed less than 30% of inhibitory activity in 10 nM-addition zone and showed 30% or more of inhibitory activity in 100 nM-addition zone)
329 (FG[NMeF]G[F44thp]GDD[Cha]A[NMeF]LHCG-NH2; not fully specified (N-terminus, bridges)) [compound 329]	–	–	ND (the inhibitory activity was less than 30% at the maximum concentration evaluated)	D (showed less than 30% of inhibitory activity in 10 nM-addition zone and showed 30% or more of inhibitory activity in 100 nM-addition zone)
330 (FG[NMeF][dA][Bip]GDD[Cha]A[NMeF]LHCG-NH2; not fully specified (N-terminus, bridges)) [compound 330]	–	–	ND (the inhibitory activity was less than 30% at the maximum concentration evaluated)	D (showed less than 30% of inhibitory activity in 10 nM-addition zone and showed 30% or more of inhibitory activity in 100 nM-addition zone)
331 (FG[NMeF][dS][Bip]GDD[Cha]A[NMeF]LHCG-NH2; not fully specified (N-terminus, bridges)) [compound 331]	–	–	ND (the inhibitory activity was less than 30% at the maximum concentration evaluated)	D (showed less than 30% of inhibitory activity in 10 nM-addition zone and showed 30% or more of inhibitory activity in 100 nM-addition zone)
332 (FG[NMeF]G[Bip]ADD[Cha]A[NMeF]LHCG-NH2; not fully specified (N-terminus, bridges)) [compound 332]	–	–	ND (the inhibitory activity was less than 30% at the maximum concentration evaluated)	D (showed less than 30% of inhibitory activity in 10 nM-addition zone and showed 30% or more of inhibitory activity in 100 nM-addition zone)
333 (FG[NMeF]G[Bip][dA]DD[Cha]A[NMeF]LHCG-NH2; not fully specified (N-terminus, bridges)) [compound 333]	–	–	ND (the inhibitory activity was less than 30% at the maximum concentration evaluated)	D (showed less than 30% of inhibitory activity in 10 nM-addition zone and showed 30% or more of inhibitory activity in 100 nM-addition zone)
334 (FG[NMeF]G[Bip]GND[Cha]A[NMeF]LHCG-NH2; not fully specified (N-terminus, bridges)) [compound 334]	–	–	ND (the inhibitory activity was less than 30% at the maximum concentration evaluated)	D (showed less than 30% of inhibitory activity in 10 nM-addition zone and showed 30% or more of inhibitory activity in 100 nM-addition zone)
